Measured values: patent publication US10011659B2, “Compositions and methods for treating cancer resistant to a tyrosine kinase inhibitor (TKI)” (Yeda Research and Development Co. Ltd., priority 2014, dated 2018)
Positions count from the first letter of the chain named. Entries after “also recorded” stand apart in the source; their conditions may differ.

Tests used:
PC9ER-AZDR cells [1] = experiment: MTT cell survival assay; assay type: cell-based, human; conditions: 72 hours, increasing doses
Experimental: (§1) Cell cultures—The H1975 (ATCC; NCI-H1975_CRL-5908) lung cancer cell line (EGFR mutations: L858R and T790M, ATCC; Rockville, Md.), PC9 and erlotinib-resistant PC9ER lung cancer cells (de1746-750+T790M) (described in 16) were maintained in RPMI-1640 supplemented with 10% FCS (Life technology) and antibiotics. PC9ER cells resistant to AZD-9291, denoted as PC9ER-AZDR cells, were generated by incubating PC9ER cells with AZD-9291 for three months. The dose, initially provided at 0.5 nM, was increased every 4 days per 1.5 fold up to 2.5 μM. NL20 (ATCC; NL20_CRL-2503), an immortalized human bronchial epithelial cell line (ATCC, Rockville, Md.) was maintained in F12K medium as recommended by the ATCC. Co-cultures in a ratio of 1:1 of WI38 (ATCC; CCL-75) and PC9ER or H1975 cells were maintained in DME medium supplemented with sodium pyruvate and fetal calf serum (FCS 5%; Life Technology).
(§2) Cell growth and survival—Cell survival was assessed using the 3-(4,5-dimethylthiazol-2-yl)-2,5 diphenyl tetrazolium bromide (MTT) assay (Sigma Cat#M2003). Cells were plated on 96-wells plates (2,000 cells/well) in triplicates. The medium was changed the following day and cells were treated as indicated. Following 3-4 days of incubation, MTT reagent was added to the cells for one hour followed by dissolving of the formazan crystals in SDS-DMF solution. Absorbance was measured using a microplate reader, Biorad Model 680, at 570 nm.

H1975 NSCLC cells = experiment: Tumorigenic growth in-vivo, xenograft; design: species or system CD1-nu/nu mice; conditions: for tumor growth: mAbs intraperitoneally once every three days from day 11, total 200 μg per mouse per injection
Experimental: Tumorigenic growth in-vivo—The animal studies were approved by the Weizmann Institute's Review Board (IRB). CD1/nude mice (Harlan Laboratories) were randomized in groups of ten mice and injected subcutaneously in the right flank with H1975 lung cancer cells (3×10^6 per mouse) or with PC9ER lung cancer cells (4×10^6 per mouse). PBS or mAbs were injected intraperitoneally once every three days at a total dose of 200 μg per mouse per injection starting 11 days following cells injection, until tumors reached the size of 1,500 mm^3. In experiments evaluating the effect of the TKI AZD-9291, Vehicle (Vehicle formulation: HPMC 0.5% (sigma Cat#56340), Tween80 0.1% (Sigma Cat #P8074 in water), Erlotinib at a dose of 50 mg/kg per injection, or AZD9291 at a dose of 1 or 5 mg/kg per injection were injected daily intraperitoneally. In one experiment (FIG. 17), mice were treated daily with Erlotinib at a dose of 50 mg/kg per injection until tumors reached a size of 800 mm^3 and only then were treated as indicated. Tumor volume was evaluated twice a week and body weight was evaluated once a week. Mice were euthanized when tumor size reached 1,500 mm^3. Few of the tumors were harvested from mice at the indicated time points and taken for further evaluation. Survival of the tumor bearing mice was recorded and depicted by Kaplan-Meier analysis.

PC9ER-AZDR cells [2] = experiment: Tumorigenic growth in-vivo, xenograft; conditions: erlotinib 50 mg/kg/d; AZD9291 1 and 5 mg/kg/d; 3×mAbs 0.2 mg/mouse/injection once every three days
Experimental: A derivative of PC9ER cells (erlotinib-resistant) was implanted in the flank of immune compromised mice. Vehicle, erlotinib (50 mg/kg/d), low-dose AZD9291 (L; 1 mg/kg/d) and high-dose AZD9291 (H; 5 mg/kg/d) were daily administrated by oral gavage, while the 3×mAbs (triple antibody combination; CTX, TRZ, 33; 0.2 mg/mouse/injection) were administrated once every three days by intraperitoneal injection. Data are means±SEM from 9 mice in each group.
Tumorigenic growth in-vivo—The animal studies were approved by the Weizmann Institute's Review Board (IRB). […] In experiments evaluating the effect of the TKI AZD-9291, Vehicle (Vehicle formulation: HPMC 0.5% (sigma Cat#56340), Tween80 0.1% (Sigma Cat #P8074 in water), Erlotinib at a dose of 50 mg/kg per injection, or AZD9291 at a dose of 1 or 5 mg/kg per injection were injected daily intraperitoneally. In one experiment (FIG. 17), mice were treated daily with Erlotinib at a dose of 50 mg/kg per injection until tumors reached a size of 800 mm^3 and only then were treated as indicated. Tumor volume was evaluated twice a week and body weight was evaluated once a week. Mice were euthanized when tumor size reached 1,500 mm^3. […] Survival of the tumor bearing mice was recorded and depicted by Kaplan-Meier analysis.

PC9ER NSCLC cells = experiment: Tumorigenic growth in-vivo, xenograft; design: species or system CD1-nu/nu mice
Experimental: CD1/nude mice (Harlan Laboratories) were randomized in groups of ten mice and injected subcutaneously in the right flank with H1975 lung cancer cells (3×10^6 per mouse) or with PC9ER lung cancer cells (4×10^6 per mouse). PBS or mAbs were injected intraperitoneally once every three days at a total dose of 200 μg per mouse per injection starting 11 days following cells injection, until tumors reached the size of 1,500 mm^3. […] Few of the tumors were harvested from mice at the indicated time points and taken for further evaluation. Survival of the tumor bearing mice was recorded and depicted by Kaplan-Meier analysis.

[3] = system: EGFR phosphorylation in PC9ER-AZDR cells; experiment: Western blot (immunoblot) of EGFR phosphorylation; assay type: cell-based, human; conditions: 1 μM, 6 hours
PC9ER cells = experiment: MTT cell survival assay; assay type: cell-based, human; conditions: for ability to inhibit survival of cultured NSCLC cells: 4 days, versus other anti-EGFR, anti-HER2, anti-HER3 mAbs (FIG. 3)
Experimental: as §1, §2

H1975 cells = experiment: MTT cell survival assay; assay type: cell-based, human; conditions: for ability to inhibit survival of cultured NSCLC cells: 4 days, versus other anti-EGFR, anti-HER2, anti-HER3 mAbs (FIG. 3)
Experimental: as §1, §2

PC9 cells = experiment: MTT cell survival assay; assay type: cell-based, human; conditions: 3 days treatment with increasing doses
Experimental: as §1, §2

[4] = system: EGFR, HER2, HER3 and phosphorylated forms in PC9ER and H1975 cells; experiment: Western blot after long-term exposure to anti-EGFR mAb; assay type: cell-based, human; conditions: resistant cell lines
Experimental: (§3) Western blot analysis—Cells were grown under specified conditions or treated as indicated. Following the cells were washed twice with cold PBS and scraped into lysis buffer [50 mM Hepes (pH 7.5), 10% glycerol, 150 mM NaCl, 1% Triton X-100, 1 mM EDTA, 1 mM EGTA, 10 mM NaF, 0.1 mM Na3VO4, and a complete protease inhibitor cocktail]. Thereafter, lysates were centrifuged at 14,000 g for 15 minutes at 4° C. The supernatant was used for subsequent procedures. Western blot analyses were conducted following protein separation using gel electrophoresis and transfer to nitrocellulose membranes. Immunoblotting was performed according to the antibody manufacturers' recommendation. Blocking was done using 5% milk in PBST (0.5% Tween20 Sigma Cat#P9416). Antibody binding to membrane blots was detected using horseradish peroxidase—secondary antibodies (Jackson ImmunoResearch Laboratories), followed by treatment with ECL Western blotting detection reagents (GE Healthcare).

[5] = system: EGFR, HER2, HER3, AKT, ERK and their phosphorylated forms in PC9ER cells; experiment: Western blot time course of receptors and downstream pathways; assay type: cell-based, human; conditions: 10 μg/ml; for ERK activation / re-activation (phosphorylation): late peak at about 24 hours
Experimental: as §3

[6] = 3 days treatment with increasing doses, EGFR T790M

C=CC(=O)Nc1cc(Nc2nccc(-c3cn(C)c4ccccc34)n2)c(OC)cc1N(C)CCN(C)C [AZD-9291]
survival / sensitivity (MTT) (PC9ER-AZDR cells [1]): lost sensitivity
survival / sensitivity (MTT) (PC9ER-AZDR cells [1]; listed as AZD9291): clearly demonstrated resistance
body weight gain (H1975 NSCLC cells; AZD9291 5 mg/kg/day, compared with the triple mAb combination): slightly inhibited body weight gain
growth of the erlotinib-resistant human NSCLC tumor (H1975 NSCLC cells; AZD9291 5 mg/kg/day, triple combination of antibodies (CTX+TRZ+33)): comparably inhibited growth
tumor growth / tumor volume (PC9ER-AZDR cells [2]): Neither erlotinib nor AZD9291 (at both low and high doses) were able to significantly inhibit tumor growth
tumor relapse in post-treatment phase (PC9ER NSCLC cells; erlotinib 1st line to approximately 550 mm^3, 2nd line treatment to day 50, then no treatment, AZD9291 1 or 5 mg/kg/d, 3×mAbs 0.2 mg/mouse/injection): relapse of tumors; also recorded: rapid and dramatic relapse
EGFR phosphorylation [3]: remained phosphorylated
EGFR phosphorylation ([3]; listed as AZD9291): failed to inhibit EGFR phosphorylation

C#Cc1cccc(Nc2ncnc3cc(OCCOC)c(OCCOC)cc23)c1 [erlotinib]
cell survival (PC9ER cells; [6]): exhibited resistance
cell survival (H1975 cells; [6]): exhibited resistance
cell survival (PC9 cells): strongly inhibited
tumor growth / tumor volume (PC9ER-AZDR cells [2]): Neither erlotinib nor AZD9291 (at both low and high doses) were able to significantly inhibit tumor growth
tumor growth, 1st line phase (PC9ER NSCLC cells; erlotinib 50 mg/kg/d versus control group): no differences were noted

B1: mAb 565: anti-EGFR monoclonal antibody, clone 565, CNCM I-4262; VH SEQ ID NO: 1, Vkappa SEQ ID NO: 2 (antibody, V domains shown)
VH: QVQLQQSGAELVKPGASVKLSCKASGYTFTNYWIHWVKQRPGQGLEWIGEIGPINGRSNYIEKFKTKATLTVDKSSSTTYLHLSSLTSEDSAVYYCAREDDYDGKAMDYWGQGTSVTVSS
VL: DIVMTQSHKFXSTSVGDRVSITCKASQNVGTAVAWYQQKPGQSPKLLIYWTSTRHTGVPDRFTGTGSGTEFTLTINNVQSEDLADYFCQQYSGYSFGGGTKLELKR
modifications: not fully specified; anti-EGFR 565 VH amino acid sequence; EGFR 565 kappa amino acid sequence; (11)..(11) Xaa can be any naturally occurring amino acid
HER2 and HER3 and their active tyrosine phosphorylated forms [4]: up-regulation
expression levels of EGFR [4]: gradual decrease
inhibition of survival (PC9ER cells; 10 μg/ml, 4 days of incubation): approximately 40%
ability to inhibit survival of cultured NSCLC cells (PC9ER cells; 10 μg/ml): superior ability to inhibit survival
inhibition of survival (H1975 cells; 10 μg/ml, 4 days of incubation): approximately 40%
ability to inhibit survival of cultured NSCLC cells (H1975 cells; 10 μg/ml): superior ability to inhibit survival
tumor growth (H1975 NSCLC cells): partly inhibited tumor growth
EGFR protein level (degradation) [5]: almost disappeared
ERK activation / re-activation (phosphorylation) [5]: hyper-phosphorylation
phosphorylation of EGFR ([5]; listed as anti-EGFR mAb): initially reduced; also recorded: strikingly strong re-phosphorylation

B2: mAb 12: anti-HER2 monoclonal antibody, clone N12, CNCM I-4112; VH SEQ ID NO: 3, Vkappa SEQ ID NO: 4 (antibody, V domains shown)
VH: QVQLQQSGAELVRPGDSVNLSCKASGYTFTSYWMYWIKQRPDQGLESIGNIHPNNGGTNYSGKFKNKASLTVDKSSTTAYMQLSSLTSEDSAVYFCARLTGIGMDYWGQGTSVIVSS
VL: B1 VL with X11M, K101R, L104I, R106L
modifications: of anti-HER2 N12 VH amino acid sequence; anti-HER2 N12 Vkappa amino acid sequence
ability to inhibit survival of cultured NSCLC cells (PC9ER cells; 10 μg/ml): superior ability to inhibit survival
ability to inhibit survival of cultured NSCLC cells (H1975 cells; 10 μg/ml): superior ability to inhibit survival
tumor growth (H1975 NSCLC cells): neither anti-HER2, anti-HER3 nor combined anti-HER2 and anti-HER3 treatment repressed tumor growth
ERK activation / re-activation (phosphorylation) [5]: induced ERK hyper-phosphorylation

B3: mAb 33: anti-HER3 monoclonal antibody, clone NG33; VH SEQ ID NO: 5, Vkappa SEQ ID NO: 6 (antibody, V domains shown)
VH: DVQLQESGPGLVKPSQSLSLTCSVTGYSITSGFYWSWIRQFPGNKLEWMGYIAYDGTSNYNPSLKNRISITRDTSKNQFFLKLKSVTNEDTPTYYCARGGGYYGQLLDYWGQGTSVTVSS
VL: DARMTQSPSSLSASLGDRVTISCRASQDISNYLNWYQQKPDGTVKVLIYNTAKLHSGVPSRFSGSGSGTDYSLTISNLEQEDFATYFCQQGKTLPWTFGGGTKLELK
modifications: anti-HER3 33 VH amino acid sequence; anti-HER3 33 Vkappa amino acid sequence
ability to inhibit survival of cultured NSCLC cells (PC9ER cells; 10 μg/ml): superior ability to inhibit survival
ability to inhibit survival of cultured NSCLC cells (H1975 cells; 10 μg/ml): superior ability to inhibit survival
tumor growth (H1975 NSCLC cells): neither anti-HER2, anti-HER3 nor combined anti-HER2 and anti-HER3 treatment repressed tumor growth
